The text below walks through data of patent US7718353B2, “Proteins, sensors, and methods of characterizing analytes using the same” (University of Maryland Baltimore County, priority 2003, dated 2010).

Changes are numbered by the printed parent chain. In names and notes the source's numbering stands. Where two headings read alike, the source gives them in different places.

Series [1] can be described thus: Fluorescence binding isotherm of labeled S179C GlnBP. The settings on record: fit to binding isotherm, read-out: binding constant for glutamine. As to the method:
The emission spectra were recorded on a Varian Cary Eclipse fluorescence spectrophotometer (Varian Instruments, Walnut Creek, Calif.). All samples were measured in quartz cuvettes (Starna Cells, Inc., Atascadero, Calif.).
The apparent binding constants were calculated by fitting the experimental results to the binding isotherm (DATTELBAUM et al., Anal. Biochem., 291:89-95 (2001), which is incorporated by reference herein). The binding constants for the single-labeled and doubled-labeled GlnBP were calculated to be 0.23±0.01 μM and 0.28±0.03 μM, respectively. Both were in agreement with the reported value of 100-300 nM for the wild type (SOHANPAL et al., Sensors Actuators B, 11:547-552 (1993), which is incorporated by reference herein). While not wishing to be bound by theory, the reason for this agreement is believed to be that the position of the fluorophore is far from the binding site, consequently, the binding affinity is not greatly affected. The binding constant of GBP for glucose was calculated to be 0.78±0.07 μM, which also agrees well with the reported value of 0.8 μM (HELLINGA et al., Trends Biotechnol., 16:183-189 (1998), which is incorporated by reference herein).

Series [2] in a line: Stability and reproducibility of labeled binding proteins by binding assays. It counts as physicochemical. The conditions noted are these: 5 months after preparation. How it is done: The stability of the binding proteins was determined by binding assays. The labeled binding proteins can be stored in phosphate buffer at 4° C. for at least 5 months. […] While not wishing to be bound by theory, factors that could have caused this change include fluorophore and protein. In any case, the recalibration of the biosensor during its use in fermentation or cell culture is unnecessary because fermentation or cell culture usually lasts from only several hours to a few days.

A short description of series [3]: Reported (literature) binding of glutamine to GlnBP. The conditions noted are these: yielded by the reported ka and kd; read-out: dissociation constant. How it is done:
This figure seeks to illustrate two things. First, the fluorescence intensity of acrylodan (λmax=515 nm) decreased with increasing concentration of glutamine. Concurrently, the luminescence intensity of Ru remained constant at λmax=610 nm. Second, the standard solutions of glutamine (0.1 to 6.4 mM) were prepared in glutamine-free Dulbecco's modified Eagle media (DMEM), a commonly used media for tissue culture. The resulting solutions were then diluted 1000× with PBS and used in the assay. The submicromolar sensitivity of the protein for glutamine remained virtually unchanged from that observed with the acrylodan label alone, as shown in DATTELBAUM et al., Anal. Biochem., 291:89-95 (2001), which is incorporated by reference herein. […]
The apparent binding constants were calculated by fitting the experimental results to the binding isotherm (DATTELBAUM et al., Anal. Biochem., 291:89-95 (2001), which is incorporated by reference herein). The binding constants for the single-labeled and doubled-labeled GlnBP were calculated to be 0.23±0.01 μM and 0.28±0.03 μM, respectively. […] The binding constant of GBP for glucose was calculated to be 0.78±0.07 μM, which also agrees well with the reported value of 0.8 μM (HELLINGA et al., Trends Biotechnol., 16:183-189 (1998), which is incorporated by reference herein). […]

The nature of series [4]: Glutamine measurement in lymphoblast cell culture, GlnBP sensor versus YSI. The settings on record: cell culture medium. As to the method: The cells used in the cell culture came from two different cell lines, GM010178 and GM14649, both lymphoblasts from […]. These cell lines were obtained commercially from Coriell Cell Repositories, and have been grown in a solution of 15% Fetal Bovine Serum in RPMI Medium 1640 with GlutaMAX™ (Gibco™, Grand Island, N.Y.). For the 100 mL cell culture, 50 mL of fresh medium was mixed with 50 mL of inoculum in a 250 mL polystyrene flask, and then incubated in a CO2 incubator (Precision Scientific, Chicago, Ill.) until the color of the medium turned from red to yellow. 1 mL of sample was taken from the culture every 2 h for analysis. […] The glutamine concentration was then measured with a YSI 2700 Chemistry Analyzer and concurrently with the glutamine biosensor by diluting a small volume of sample 1,000 times. […] One microliter of sample was taken each time and the glutamine concentration was measured with the present biosensor thereafter.
As in the determination of glucose, analysis of glutamine by the GlnBP sensor was compared to the YSI Chemistry Analyzer. […] The hydrogen peroxide that is released is detected at the platinum electrode. Since glutamate oxidase can also detect the glutamate that is already present in the media, the reading of the glutamine sensor is actually the sum of glutamine and glutamate in the media. […]

For series [5] the following is noted: cited from earlier work.
Series [6] is described as follows: Steady-state emission intensity ratio (I515/I610) of Ru-GlnBP-Acr versus glutamine. It counts as binding. How it is done: Steady-state emission spectra were recorded on a Varian Cary Eclipse spectrofluorimeter (Varin Instruments, Walnut Creek, Calif.). Time-resolved luminescence decays were measured on a frequency domain fluorimeter (ISS-Koala, Champaign, Ill.) with the following modifications. Blue LED LNG992CFBW (Panasonic, Secaucus, N.J.) driven by a current source was used as the excitation source. The modulation voltage was applied through bias T. The standard radiofrequency amplifier for the photomultiplier tubes was replaced with a ZHL-6A 1-circuits, Brooklyn, N.Y.) to enhance the low-frequency performance. The excitation light was filtered by 500-, 550-, and 650 FL07 short-wave pass filters (Andover, Salem, N.H.). The emission light was filtered by a 500 FH90 long-wave pass filter (Andover). Luminescence decay data were analyzed by nonlinear least-squares methods.
This figure seeks to illustrate two things. First, the fluorescence intensity of acrylodan (λmax=515 nm) decreased with increasing concentration of glutamine. Concurrently, the luminescence intensity of Ru remained constant at λmax=610 nm. Second, the standard solutions of glutamine (0.1 to 6.4 mM) were prepared in glutamine-free Dulbecco's modified Eagle media (DMEM), a commonly used media for tissue culture. The resulting solutions were then diluted 1000× with PBS and used in the assay. […]

B1: GlnBP-Acr: S179C variant of E. coli glutamine-binding protein labeled with acrylodan at cysteine 179 (protein, UniProt P0AEQ3 23-248, looked up, variant S179C)
Glutamine-binding periplasmic …: ADKKLVVATDTAFVPFEFKQGDKYVGFDVDLWAAIAKELKLDYELKPMDFSGIIPALQTKNVDLALAGITITDERKKAIDFSDGYYKSGLLVMVKANNNDVKSVKDLDGKVVAVKSGTGSVDYAKANIKTKDLRQFPNIDNAYMELGTNRADAVLHDTPNILYFIKTAGNGQFKAVGDCLEAQQYGIAFPKGSDELRDKVNGALKTLRENGTYNEIYKKWFGTEPK
modifications: acrylodan label at C179
As for B1, the figures for the Kd in series [1] (listed as single-labeled GlnBP), in series [1] and in series [3] were 230 ± 10 nM, 200 nM and 163 nM, respectively. In addition, in series [2], the “change of calibration curve after storage” value is reported as “underwent some changes in 5 months after preparation, but was still responsive to glutamine”. In series [4], the “selectivity: response to glutamine versus glutamate” value is “responsive to glutamine but not to glutamate”. Moreover, the “ka for the binding” value in series [5] (reported, WEINER et al.) is 9.8e+07 M⁻¹ s⁻¹. For the same molecule, in series [5] (reported, WEINER et al.), the “kd for the dissociation” value is 16 s⁻¹.

B2: Ru-GlnBP-Acr: S179C GlnBP labeled at the cysteine with acrylodan and at the N-terminal with ruthenium bis-(2,2′-bipyridyl)-1,10-phenanthroline-9-isothiocyanate (protein, UniProt P0AEQ3 23-248, looked up, variant S179C)
Glutamine-binding periplasmic …: B1 Glutamine-binding periplasmic …
modifications: acrylodan; N-terminal ruthenium complex label
notes: S179C GlnBP labeled at the cysteine with acrylodan and at the N-terminal with ruthenium bis-(2,2′-bipyridyl)-1,10-phenanthroline-9-isothiocyanate
Consider B2, for which, in series [6] (DMEM diluted 1000× with PBS), the “interference of other DMEM components with glutamine binding” value is given as “did not interfere with the binding of glutamine”. Further, the Kd in series [6] (from I515/I610 ratio, glutamine standards in DMEM diluted 1000× with PBS, 2.0 μM protein, read-out: apparent binding constant K′d for a single binding site) was 720 ± 100 nM; in series [1] it was 280 ± 30 nM.

B3: wild type: wild type glutamine-binding protein, literature dissociation constant (protein, UniProt P0AEQ3 23-248, looked up)
Glutamine-binding periplasmic …: B1 Glutamine-binding periplasmic … with C179S
Regarding B3, the Kd in series [5] (literature value, read-out: reported dissociation constant for the wild type) was 100 to 300 nM.
